Data: patent US20190204338A1, “Methods for the Characterisation of Interaction Sites on Target Proteins” (Phylogica Limited, priority 2012, published 2019)

Experiments:
FOXO class Forkhead = test: Heterologous reporter construct specificity test (FOXO class Forkhead); type: cell-based; conditions: data not shown
Description: (§1) Transfection of these Phylomers was not generally cytotoxic as assessed by cell viability using the Cell Titre Blue system (Promega) (data not shown). To initially assess their specificity for AP1 inhibition, we tested these hits against two heterologous reporter constructs designed to detect the activation of two distinct transcription factors, namely Notch and FOXO class Forkhead.

Notch = test: Heterologous reporter construct specificity test (Notch); type: cell-based; conditions: data not shown
Description: as §1

B1: 4G9: AP1-inhibitory Phylomer, SEQ ID NO: 6 (LKHRDYWVPL LYFFFVLITM ...), identified by phenotypic screening (protein)
chain: LKHRDYWVPLLYFFFVLITMFWDLYCHSGQYLYEARSLLPFYLFPFLIAALRIGDIVVDTRCRNVENLGGFERSAESSRYVQLSLYERQWFRLRYRAYGGNLRCLAGDLVENWRLWKEVNSKAAKDIDGAVMLRFFLPPRDLARLVTLLAALIAVIATLIITLAIV
modifications: Protein fragment of unknown organism
Effect on FOXO class Forkhead reporter construct (FOXO class Forkhead): generally inhibited all reporter constructs | Effect on Notch reporter construct (Notch): generally inhibited all reporter constructs
